Results reported in patent US20140357543A1.

B1: proteinaceous protease inhibitor (BC) of SEQ ID NO:1, wheat-derived subtilisin/chymotrypsin inhibitor (protein)
chain: TDTGDHHNQKTEWPELVGKSVEEAKKVILQDKSEAQIVVLPVGTIVTMEYRIDRVRLFVDSLDKIAQVPRVG
B2: proteinaceous protease inhibitor of SEQ ID NO:5 (protein)
chain: TDTGDHHNQKTEWPELVGKSVEEAKKVILQDKSEAQILVLPVGTIVTMEYRIDRVRLFVDSLDKIAQVPRVG
B3: proteinaceous protease inhibitor of SEQ ID NO:40 (protein)
chain: TECGGGGGAKTSWPEVVGLSVEEAKKVILKDKPDADIVVLPVGSVVTADYRPNRVRIFVDIVAQTPHVG
B4: proteinaceous protease inhibitor of SEQ ID NO:41 (protein)
chain: MSSVEKKPEGVNTGAGDRHNLKTEWPELVGKSVEEAKKVILQDKSEAQIIVLPVGTIVTMEYRIDRVRLFVDKLDNIAQVPRVG
B5: proteinaceous protease inhibitor of SEQ ID NO:6 (protein)
chain: TDTGDHHNQKTEWPELVGKSVEEAKKVILQDKSEAQIIVLPVGTIVTMEYRIDRVRLFVDSLDKIAQVPRVG

These binders were tested against T1, alcalase (trade name "Alcalase 2.5L", Novozymes) (UniProt P00780) (assay: cell-based or functional assay).
T1 sequence (looked up): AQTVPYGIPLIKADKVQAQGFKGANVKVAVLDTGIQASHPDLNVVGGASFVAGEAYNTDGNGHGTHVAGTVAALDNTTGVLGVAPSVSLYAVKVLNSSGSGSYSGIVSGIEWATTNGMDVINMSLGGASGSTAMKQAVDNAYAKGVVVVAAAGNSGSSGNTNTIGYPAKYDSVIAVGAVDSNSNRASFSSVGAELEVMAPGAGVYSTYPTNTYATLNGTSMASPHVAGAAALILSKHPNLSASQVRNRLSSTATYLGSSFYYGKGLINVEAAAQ
B1 showed a Protease activity upon dilution (%) immediately after preparation of 10% and a Remaining activity (%) immediately after preparation of 0%. Work on B2 yielded a Protease activity upon dilution (%) immediately after preparation of 100% and a Remaining activity (%) immediately after preparation of 11%. B3 gave a Protease activity upon dilution (%) immediately after preparation of 100% and a Remaining activity (%) immediately after preparation of 53%. B4 gave a Protease activity upon dilution (%) immediately after preparation of 8% and a Remaining activity (%) immediately after preparation of 0%. Binder B5 has a Protease activity upon dilution (%) immediately after preparation of 10% and a Remaining activity (%) immediately after preparation of 0%.
